Assay results reported in patent publication US9675625B2, “Medicament comprising recombinant antibody against chemokine receptor CCR4” (KYOWA HAKKO KIRIN CO., LTD., priority 2003, dated 2017).
Several values for one entry are separate records, joined by “and”; a condition that tells them apart may be missing. Equal entries are not always repeated.

What was measured:
CCR4/EL4 cells [1] = assay: antitumor effect of KM 2760 and IFN-α in combination, CCR4/EL4 cells grafted into tail vein of C57BL/6 mice, liver weight ratio; type: in vivo, C57BL/6 mouse
Protocol: CCR4/EL4 cells were suspended in RPMI 1640 medium (manufactured by Gibco BRL) at a concentration of 5×10^5 cells/mL, and 100 μl of the suspension was grafted into the tail vein of C57BL/6 mice (CLEA Japan Inc., male, 8 weeks old). Further, mice were grouped into A to D, and each of the agents A to D were administered to the mice. Incidentally, the day on which the tumor was grafted was defined as Day 0.
B. Group of administering IFN-α alone: 5×10^4 units of IFN-α (Universal type I interferon, manufactured by PBL Biomedical Laboratories) was intravenously administered per mouse once a day for 5 days from Day 1 to Day 5.
The experiment was conducted with group A consisting of 7 mice and groups B, C and D each consisting of 6 mice. […] The weight of all mice was measured on Day 14. After etherization and exsanguination, mice were brought to euthanasia by dislocation of the cervical spine. The liver was extracted, and the weight of the liver was then measured. A ratio of the liver weight to the weight of each individual (hereinafter referred to as a weight ration of a liver) was calculated by percentage.
The antitumor effect was evaluated by comparing the liver weight ratio (average value of six mice) of untreated healthy mice measured simultaneously and the liver weight ratio of each group increased by metastasis of tumor cells.
Further, the residual amount of tumor cells in the liver in each group was calculated as a T/C value using the following formula. T/C=(average values of a weight ration of a liver of each group−average value of a weight ration of a liver of an untreated mouse)/(average value of a weight ration of a liver of a negative control group−average value of a weight ration of a liver of an untreated mouse) (Formula 4)

CCRF-CEM cells [2] = assay: antitumor effect of KM 2760 and vincristine in combination, CCRF-CEM cells grafted in nude mouse; type: in vivo, Balb/c nude mouse; settings: Day 10; KM 2760 800 μg per mouse Day 0 and Day 4; VCR 0.55 mg/kg Day 0; tail vein
CCR4/EL4 cells [3] = system: CCR4/EL4 cells
Protocol: CCR4/EL4 cells (WO 01/64754) were suspended in RPMI 1640 medium (manufactured by Gibco BRL) at a concentration of 1×10^5 cells/mL, and 200 μL of the suspension was grafted into the peritoneal cavity of C57BL/6 mice (CLEA Japan Inc., male, 8 weeks old). After, mice was grouped into A to D, and each of the agents A to D was administered to each mouse. The day on which the tumor was grafted was defined as Day 0.
B. Group of administering M-CSF alone: 100 μg of M-CSF (Leucoprol, manufactured by Kyowa Hakko Kogyo Co., Ltd.) was intraperitoneally administered per mouse twice a day from Day-3 to Day-1 and once a day on Day 0, seven times in total.
The experiment was conducted with groups each consisting of 8 mice. […] The antitumor effect was evaluated by a ratio of average values of the number of survival days of mice in each group to an average value of the number of survival days of mice in the negative control group (hereinafter referred to as a life prolongation ratio).

CCRF-CEM cells [4] = assay: antitumor effect of KM 2760 and Methotrexate in combination, CCRF-CEM cells grafted in nude mouse; type: in vivo, Balb/c nude mouse; settings: Day 7; KM 2760 800 μg per mouse Day 0 and Day 4; MTX 15 mg/kg Day 0 to Day 4; tail vein
Protocol: CCRF-CEM cells (human T cell leukemia cell line) were suspended in RPMI 1640 medium (Gibco BRL) at a concentration of 2×10^8 cells/mL, and 100 μL of the suspension was grafted into the ventral skin of Balb/c nude mice (CLEA Japan Inc. male). On Day 17 after the cell grafting, a diameter of a tumor was measured with calipers, and a tumor volume was calculated using formula 2 in Example 2.
Individuals having the tumor volume within the range of 121 to 348 mm^3 (on average 195 mm^3) were selected, and grouped such that the average tumor volume to be almost the same. Each of the following agents A to D was administered to the mice. Incidentally, the grouping day was defined as Day 0.
B. Group of administering KM 2760 alone: 800 μg of KM2760 was administered per mouse on Day 0 and Day 4.
C. Group of administering Methotrexate (hereinafter referred to as MTX; Methotrexate injection solution, Nippon Weisledary K.K.) alone: 15 mg/kg of MTX was administered per mouse for 5 days from Day 0 to Day 4. […]
The experiment was conducted with groups each consisting of five mice. […] On Day 7, the tumor volume was measured. The antitumor effect was evaluated by comparing average values of a tumor volume change (V/V0) when the tumor volume on Day 0 in each group was defined as V0.

[5] = KM 2760 50 μg i.p. Day 0, M-CSF 100 μg i.p. seven times

B1: KM 2760: anti-CCR4 human chimeric antibody KM 2760 (FERM BP-7054, WO 01/64754) (antibody, V domains shown)
VH: EVQLVESGGDLMKPGGSLKISCAASGFIFSNYGMSWVRQTPDMRLEWVATISSASTYSYYPDSVKGRFTISRDNAENSLYLQMNSLRSEDTGIYYCGRHSDGNFAFGYWGRGTLVTVSA
VL: DVLMTQTPLSLPVSLGDQASISCRSSRNIVHINGDTYLEWYLQRPGQSPKLLIYKVSNRFSGVPDRFSGSGSGTDFTLKISRVEAEDLGVYYCFQGSLLPWTFGGGTRLEIRR
T/C value (residual amount of tumor cells in the liver, from liver weight ratio) (CCR4/EL4 cells [1]; Day 14, KM 2760 0.5 μg per mouse i.v. Day 1 and Day 5, IFN-α 5×10^4 units per mouse i.v. Day 1 to Day 5): 0.52
antitumor effect compared to untreated group A (liver weight ratio) (CCR4/EL4 cells [1]; FIG. 7, Day 14): low
T/C (V/V0 of group divided by V/V0 of negative control group) (CCRF-CEM cells [2]): 0.43
Number of survival days (each mouse) (CCR4/EL4 cells [3]; 8 mice per group, KM 2760 50 μg per mouse i.p. Day 0, M-CSF 100 μg per mouse i.p. seven times Day-3 to Day 0, observation to Day 50): 19 days and 21 days (3×) and 22 days and 24 days and 26 days and 27 days
Average number of survival days (CCR4/EL4 cells [3]; [5]): 22.9 days
Life prolongation ratio (average survival days of group / negative control group) (CCR4/EL4 cells [3]; [5]): 1.19
antitumor effect in comparison with untreated Group A (survival) (CCR4/EL4 cells [3]; Table 7): low
T/C (V/V0 of group divided by V/V0 of negative control group) (CCRF-CEM cells [4]): 0.65
